Measurements as given in patent US20160279215A1, “NOVEL PEPTIDES AND COMBINATION OF PEPTIDES FOR USE IN IMMUNOTHERAPY AGAINST VARIOUS TUMORS” (immatics biotechnologies GmbH, priority 2015, published 2016).

What follows are substances tested against T1, HLA-A*02:01 (Homo sapiens, UniProt P04439, D140Y/D185E/D98H/E176V/E277Q/G131W/G231S/I119V/I121R/I166T/I218V/L300P/L318F/N151K/N90K/P208A/P217A/Q86G/Q94H/R138H/R169H/T345S) (assay: MHC binding assay: UV-ligand exchange with β2m ELISA (peptide exchange yield)). Conditions: binding to HLA-A*02:01 evaluated by peptide exchange yield (UV-ligand exchange, β2m ELISA).
T1 construct: made in house
From the text: Candidate peptides for T cell based therapies according to the present invention were further tested for their MHC binding capacity (affinity). The individual peptide-MHC complexes were produced by UV-ligand exchange, where a UV-sensitive peptide is cleaved upon UV-irradiation, and exchanged with the peptide of interest as analyzed. Only peptide candidates that can effectively bind and stabilize the peptide-receptive MHC molecules prevent dissociation of the MHC complexes. To determine the yield of the exchange reaction, an ELISA was performed based on the detection of the light chain (β2m) of stabilized MHC complexes. The assay was performed as generally described in Rodenko et al. (Rodenko et al., 2006).
96 well MAXISorp plates (NUNC) were coated over night with 2 ug/ml streptavidin in PBS at room temperature, washed 4× and blocked for 1 h at 37° C. in 2% BSA containing blocking buffer. Refolded HLA-A*02:01/MLA-001 monomers served as standards, covering the range of 15-500 ng/ml. Peptide-MHC monomers of the UV-exchange reaction were diluted 100 fold in blocking buffer. Samples were incubated for 1 h at 37° C., washed four times, incubated with 2 ug/ml HRP conjugated anti-β2m for 1 h at 37° C., washed again and detected with TMB solution that is stopped with […]. Absorption was measured at 450 nm. Candidate peptides that show a high exchange yield (preferably higher than 50%, most preferred higher than 75%) are generally preferred for a generation and production of antibodies or fragments thereof, and/or T cell receptors or fragments thereof, as they show sufficient avidity to the MHC molecules and prevent dissociation of the MHC complexes.

Row | Substance | Peptide exchange
1 | 84 (FLLEREQLL; listed as Homo sapiens) [compound 84] | ++++ (≧75% = ++++)
2 | 85 (KLLDKPEQFL; listed as Homo sapiens) [compound 85] | ++ (≧20% = ++)
3 | 86 (SLFSNIESV; listed as Homo sapiens) [compound 86] | +++ (≧50 = +++)
4 | 87 (KLLSLLEEA; listed as Homo sapiens) [compound 87] | +++ (≧50 = +++)
5 | 88 (LLLPLELSLA; listed as Homo sapiens) [compound 88] | +++ (≧50 = +++)
6 | 90 (AILNVDEKNQV; listed as Homo sapiens) [compound 90] | ++ (≧20% = ++)
7 | 91 (LLPSIFLMV; listed as Homo sapiens) [compound 91] | ++ (≧20% = ++)
8 | 93 (RLYGYFHDA; listed as Homo sapiens) [compound 93] | ++ (≧20% = ++)
9 | 94 (YLDEVAFML; listed as Homo sapiens) [compound 94] | +++ (≧50 = +++)
10 | 95 (KLIDEDEPLFL; listed as Homo sapiens) [compound 95] | +++ (≧50 = +++)
11 | 96 (ALDTTRHEL; listed as Homo sapiens) [compound 96] | ++ (≧20% = ++)
12 | 98 (FVQEKIPEL; listed as Homo sapiens) [compound 98] | +++ (≧50 = +++)
13 | 99 (TLFGIQLTEA; listed as Homo sapiens) [compound 99] | +++ (≧50 = +++)
14 | 100 (ALQSFEFRV; listed as Homo sapiens) [compound 100] | +++ (≧50 = +++)
15 | 103 (YLADTVQKL; listed as Homo sapiens) [compound 103] | ++ (≧20% = ++)
16 | 105 (AMLASQTEA; listed as Homo sapiens) [compound 105] | ++ (≧20% = ++)
17 | 106 (VLLGSVVIFA; listed as Homo sapiens) [compound 106] | ++ (≧20% = ++)
18 | 107 (RVLPGQAVTGV; listed as Homo sapiens) [compound 107] | ++ (≧20% = ++)
19 | 108 (FIANLPPELKA; listed as Homo sapiens) [compound 108] | +++ (≧50 = +++)
20 | 109 (ILGSFELQL; listed as Homo sapiens) [compound 109] | +++ (≧50 = +++)
21 | 110 (QIQGQVSEV; listed as Homo sapiens) [compound 110] | ++ (≧20% = ++)
22 | 111 (AQLEGKLVSI; listed as Homo sapiens) [compound 111] | +++ (≧50 = +++)
23 | 112 (ILAQDVAQL; listed as Homo sapiens) [compound 112] | +++ (≧50 = +++)
24 | 113 (FLFLKEVKV; listed as Homo sapiens) [compound 113] | ++ (≧20% = ++)

Row | Substance | Peptide exchange
25 | 114 (LLFPSDVQTL; listed as Homo sapiens) [compound 114] | ++ (≧20% = ++)
26 | 115 (ILHGEVNKV; listed as Homo sapiens) [compound 115] | ++ (≧20% = ++)
27 | 116 (ALLSSVAEA; listed as Homo sapiens) [compound 116] | ++ (≧20% = ++)
28 | 119 (SLIEESEEL; listed as Homo sapiens) [compound 119] | ++ (≧20% = ++)
29 | 122 (SIIDTELKV; listed as Homo sapiens) [compound 122] | +++ (≧50 = +++)
30 | 123 (QTAPEEAFIKL; listed as Homo sapiens) [compound 123] | + (≧10% = +)
31 | 124 (ALLLRLFTI; listed as Homo sapiens) [compound 124] | ++ (≧20% = ++)
32 | 125 (AALEVLAEV; listed as Homo sapiens) [compound 125] | +++ (≧50 = +++)
33 | 126 (QLREAFEQL; listed as Homo sapiens) [compound 126] | +++ (≧50 = +++)
34 | 128 (SILTNISEV; listed as Homo sapiens) [compound 128] | ++ (≧20% = ++)
35 | 129 (KMASKVTQV; listed as Homo sapiens) [compound 129] | ++ (≧20% = ++)
36 | 130 (QLYGSAITL; listed as Homo sapiens) [compound 130] | +++ (≧50 = +++)
37 | 131 (SLYPHFTLL; listed as Homo sapiens) [compound 131] | +++ (≧50 = +++)
38 | 132 (ALLNNVIEV; listed as Homo sapiens) [compound 132] | +++ (≧50 = +++)
39 | 133 (FLDGRPLTL; listed as Homo sapiens) [compound 133] | ++ (≧20% = ++)
40 | 134 (SLYKSFLQL; listed as Homo sapiens) [compound 134] | ++ (≧20% = ++)
41 | 136 (LLWDAPAKC; listed as Homo sapiens) [compound 136] | +++ (≧50 = +++)
42 | 137 (KLIYKDLVSV; listed as Homo sapiens) [compound 137] | ++ (≧20% = ++)
43 | 138 (GIINKLVTV; listed as Homo sapiens) [compound 138] | ++ (≧20% = ++)
44 | 139 (IILENIQSL; listed as Homo sapiens) [compound 139] | +++ (≧50 = +++)
45 | 140 (FLDSQITTV; listed as Homo sapiens) [compound 140] | +++ (≧50 = +++)
46 | 141 (NIDINNNEL; listed as Homo sapiens) [compound 141] | ++ (≧20% = ++)
47 | 142 (LLDAAHASI; listed as Homo sapiens) [compound 142] | ++ (≧20% = ++)

Second part, the substance after the results:

Row | Peptide exchange | Substance
48 | +++ (≧50 = +++) | 143 (MLWESIMRV; listed as Homo sapiens) [compound 143]
49 | +++ (≧50 = +++) | 144 (FLISQTPLL; listed as Homo sapiens) [compound 144]
50 | +++ (≧50 = +++) | 145 (ALEEKLENV; listed as Homo sapiens) [compound 145]
51 | ++ (≧20% = ++) | 146 (VVAAHLAGA; listed as Homo sapiens) [compound 146]
52 | +++ (≧50 = +++) | 147 (GLLSALENV; listed as Homo sapiens) [compound 147]
53 | +++ (≧50 = +++) | 148 (YLILSSHQL; listed as Homo sapiens) [compound 148]
54 | ++ (≧20% = ++) | 149 (NMADGQLHQV; listed as Homo sapiens) [compound 149]
55 | +++ (≧50 = +++) | 150 (VLLDMVHSL; listed as Homo sapiens) [compound 150]
56 | ++ (≧20% = ++) | 151 (DISKRIQSL; listed as Homo sapiens) [compound 151]
57 | +++ (≧50 = +++) | 153 (KLVELEHTL; listed as Homo sapiens) [compound 153]
58 | ++ (≧20% = ++) | 154 (AIIKEIQTV; listed as Homo sapiens) [compound 154]
59 | ++ (≧20% = ++) | 155 (TLDSYLKAV; listed as Homo sapiens) [compound 155]
60 | +++ (≧50 = +++) | 158 (YLDPLWHQL; listed as Homo sapiens) [compound 158]
61 | +++ (≧50 = +++) | 159 (QLGPVPVTI; listed as Homo sapiens) [compound 159]
62 | +++ (≧50 = +++) | 160 (TLQEWLTEV; listed as Homo sapiens) [compound 160]
63 | ++++ (≧75% = ++++) | 161 (NLLDENVCL; listed as Homo sapiens) [compound 161]
64 | +++ (≧50 = +++) | 162 (GLLGNLLTSL; listed as Homo sapiens) [compound 162]
65 | ++ (≧20% = ++) | 163 (GLEERLYTA; listed as Homo sapiens) [compound 163]
66 | +++ (≧50 = +++) | 164 (MLIIRVPSV; listed as Homo sapiens) [compound 164]
67 | +++ (≧50 = +++) | 165 (SLLDYEVSI; listed as Homo sapiens) [compound 165]
68 | +++ (≧50 = +++) | 167 (LVVDEGSLVSV; listed as Homo sapiens) [compound 167]
69 | +++ (≧50 = +++) | 168 (VIFEGEPMYL; listed as Homo sapiens) [compound 168]
70 | +++ (≧50 = +++) | 169 (ALADLSVAV; listed as Homo sapiens) [compound 169]
71 | ++ (≧20% = ++) | 170 (FIAAVVEKV; listed as Homo sapiens) [compound 170]
72 | ++ (≧20% = ++) | 171 (LLLLDVPTA; listed as Homo sapiens) [compound 171]
73 | +++ (≧50 = +++) | 173 (RLIDIYKNV; listed as Homo sapiens) [compound 173]
